{"source": "patent US20170088624A1", "biological_target": "Full length human CD40 (huCD40) on cells (human) (UniProt P25942)", "sequence (P25942 21-277)": "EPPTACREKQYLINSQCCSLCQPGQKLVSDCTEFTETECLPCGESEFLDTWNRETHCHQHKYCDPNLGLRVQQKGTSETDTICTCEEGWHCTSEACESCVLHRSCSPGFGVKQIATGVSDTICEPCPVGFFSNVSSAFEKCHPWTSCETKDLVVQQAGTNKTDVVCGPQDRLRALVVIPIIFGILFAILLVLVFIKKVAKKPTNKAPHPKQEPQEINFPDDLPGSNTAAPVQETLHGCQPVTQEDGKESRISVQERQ", "experiment": "cell-based or functional assay", "data": [{"substance": "CP-870,893 (antibody)", "values": [{"measurement": "B cells EC50, CD23 surface expression, no cross-linker", "result": 3.17, "unit": "ng/mL"}, {"measurement": "B cells EC50, CD80 surface expression, no cross-linker", "result": 7.34, "unit": "ng/mL"}, {"measurement": "B cells EC50, CD83 surface expression, no cross-linker", "result": 4.28, "unit": "ng/mL"}, {"measurement": "B cells EC50, CD86 surface expression, no cross-linker", "result": 4.04, "unit": "ng/mL"}, {"measurement": "B cells EC50, HLA-DR surface expression, no cross-linker", "result": 8.15, "unit": "ng/mL"}, {"measurement": "DC EC50, CD80 surface expression, no cross-linker", "result": 44.7, "unit": "ng/mL"}, {"measurement": "DC EC50, CD83 surface expression, no cross-linker", "result": 245, "unit": "ng/mL"}, {"measurement": "DC EC50, CD86 surface expression, no cross-linker", "result": 133, "unit": "ng/mL"}, {"measurement": "DC EC50, HLA-DR surface expression, no cross-linker", "result": 242, "unit": "ng/mL"}]}]}
